Source: patent publication US20160039884A1

Experiments:
Assay in all cases: cell-based or functional assay
[1] = target: integrin receptors
[2] = target: α5β1 integrin (UniProt P08648)
[3] = target: αv integrin (UniProt P06756)
[4] = target: α5 integrin subunit (UniProt P08648)

Sequence of UniProt P06756 (P06756 31-1048 limits assumed): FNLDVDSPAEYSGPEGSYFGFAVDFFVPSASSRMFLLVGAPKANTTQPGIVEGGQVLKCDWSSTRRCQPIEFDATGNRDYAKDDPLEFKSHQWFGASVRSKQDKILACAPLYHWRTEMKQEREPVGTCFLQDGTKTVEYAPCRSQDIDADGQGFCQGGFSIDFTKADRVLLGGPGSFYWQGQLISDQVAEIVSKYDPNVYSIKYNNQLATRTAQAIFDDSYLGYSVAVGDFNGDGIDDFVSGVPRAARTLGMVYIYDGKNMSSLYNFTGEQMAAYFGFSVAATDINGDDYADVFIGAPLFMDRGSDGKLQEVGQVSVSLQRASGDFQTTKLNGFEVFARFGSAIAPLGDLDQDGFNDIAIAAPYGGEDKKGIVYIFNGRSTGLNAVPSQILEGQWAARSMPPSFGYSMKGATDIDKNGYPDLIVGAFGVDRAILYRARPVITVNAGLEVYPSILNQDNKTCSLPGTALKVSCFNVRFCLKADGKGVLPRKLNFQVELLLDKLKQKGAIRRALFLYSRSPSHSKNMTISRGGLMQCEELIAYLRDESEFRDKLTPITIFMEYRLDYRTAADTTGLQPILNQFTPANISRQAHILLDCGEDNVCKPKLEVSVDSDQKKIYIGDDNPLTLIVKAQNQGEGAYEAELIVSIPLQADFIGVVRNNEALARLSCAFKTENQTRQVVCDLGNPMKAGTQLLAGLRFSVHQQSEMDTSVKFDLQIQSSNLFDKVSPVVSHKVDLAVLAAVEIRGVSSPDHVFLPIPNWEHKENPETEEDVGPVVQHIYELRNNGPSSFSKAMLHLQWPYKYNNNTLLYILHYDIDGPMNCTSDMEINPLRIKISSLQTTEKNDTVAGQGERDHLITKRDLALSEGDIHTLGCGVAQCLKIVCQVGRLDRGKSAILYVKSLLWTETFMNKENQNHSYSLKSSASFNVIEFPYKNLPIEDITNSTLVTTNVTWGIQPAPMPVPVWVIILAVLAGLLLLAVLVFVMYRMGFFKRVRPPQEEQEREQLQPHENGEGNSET

Row | Substance | Fusion (content mixing fusion assay, percent of wild type F) [1] [%] | other results
1 | hMPV F protein mutant G330S | 9 | –
2 | hMPV F protein mutant D331R | 107 | –
3 | hMPV F protein mutant D331E | 118 | –
4 | hMPV F protein (wild type, strain NL/1/00), expressed from pCAGGS-F | 100 | inhibition of cell-cell fusion (content-mixing fusion assay) by anti-α5β1 antibody [2]: 80%; inhibition of cell-cell fusion (content-mixing fusion assay) by anti-αv antibody [3]: 80%; reduction of fusion activity (syncytium count) after siRNA knockdown of αv [3]: 60%; reduction of fusion activity (syncytium count) after siRNA knockdown of α5 [4]: 80%
5 | hMPV F protein mutant G330A | 20 | –
6 | hMPV F protein mutant R329A | 13 | –
7 | hMPV F protein mutant R329K | 72 | –
8 | hMPV F protein mutant D331A | 58 | –
9 | hMPV F protein mutant R329D | 13 | –
